Data as given in paper PMC2808764.

Molecular target: GST-βPIX (UniProt Q14155)
Assay: pull-down

fold amount pulled down, against GST-GIT1: 2 fold
Substance: His-tagged MYO18A-CB (His-MYO18A-CB) (domain or fragment)
